Data reported in PMC3237451, “Missense Mutation in the Second RNA Binding Domain Reveals a Role for Prkra (PACT/RAX) during Skull Development”.

Molecular target: T1, His-RAX WT (PACT) (Mus musculus (cDNA from L929 cells), UniProt Q9WTX2 1-313)
T1 sequence: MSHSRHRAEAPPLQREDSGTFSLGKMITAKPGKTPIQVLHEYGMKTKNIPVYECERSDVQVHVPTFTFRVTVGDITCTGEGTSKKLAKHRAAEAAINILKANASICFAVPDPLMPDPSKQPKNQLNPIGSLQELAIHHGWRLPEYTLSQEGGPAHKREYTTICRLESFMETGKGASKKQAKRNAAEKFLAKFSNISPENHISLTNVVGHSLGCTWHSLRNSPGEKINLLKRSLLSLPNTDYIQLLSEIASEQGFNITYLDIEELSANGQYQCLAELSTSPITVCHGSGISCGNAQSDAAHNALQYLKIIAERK
Assay: EMSA; 1 uM His-RAX; 25 fmol probe; competed by poly(I:C); 20 mM Tris pH 7.5, 50 mM KCl, 2 mM MgCl2, 2 mM MnCl2, 5% glycerol; EMSA 15 min at room temperature, 5% acrylamide gel in 0.25x TBE run cold
Details: protein: recombinant; blunt

B1: 30-bp dsRNA probe (dsRNA)
RNA 1: GGGAACAAAAGCUGGGUACCGGGCCCCCCC
RNA 2: GGGGGGGCCCGGUACCCAGCUUUUGUUCCC
  binding result: binds
